Experimental findings from patent US20140234211A1 (INVECTORS S R L, published 2014) are described below.

The chains are these.
B1: monomer of formula (I) of example 1.k, H-L1-Y(C)-L2-P: P = Gln-Trp-Ala-Val-Gly-His-Leu-Met-NH2, C = DOTA, L1 = H-Peg27-OH, L2 = H-AhOh-OH, in liposomes (peptide)
peptide: {Peg27-Y(DOTA)-AhOh}-QWAVGHLM-NH2
modifications: reading uncertain; also: in liposomes
notes: Chelating agent DOTA; Tested in 111In-labelled liposomes
B2: monomer of formula (I) of example 1.g, H-L1-Y(C)-L2-P: P = Gln-Trp-Ala-Val-Gly-His-Leu-Nle-NH2, C = DOTA, L1 = H-Peg27-OH, L2 = H-AhOh-OH, in liposomes (peptide)
peptide: QWAVGHLX
modifications: not fully specified; Nle at position 8; C-terminal amide (NH2); N-terminal amino group amide-linked to spacer L2 (H-AhOh-OH)
notes: as for B1
B3: monomer of formula (I) of example 1.a, H-L1-Y(C)-L2-P: P = Gln-Trp-Ala-Val-Gly-His-Leu-Nle-NH2, C = DTPA, L1 = H-Peg27-OH, L2 = H-AhOh-OH, in liposomes (peptide)
peptide: QWAVGHLX
modifications: not fully specified; Nle at position 8; C-terminal amide (NH2); N-terminal amino group amide-linked to spacer L2 (H-AhOh-OH) of the lipid/DTPA monomer
notes: also called monomer 1a

Y(DOTA) = not defined here; Y(DTPA) = not defined here; AhOh = not defined here; Peg27 = L1, H-Peg27-OH

For this assay, the target named is T1, GRP receptor overexpressed on PC-3 cells (UniProt P30550 1-384).
T1 construct: whole, on cells; also called GRP receptors
T1 sequence (P30550 whole entry): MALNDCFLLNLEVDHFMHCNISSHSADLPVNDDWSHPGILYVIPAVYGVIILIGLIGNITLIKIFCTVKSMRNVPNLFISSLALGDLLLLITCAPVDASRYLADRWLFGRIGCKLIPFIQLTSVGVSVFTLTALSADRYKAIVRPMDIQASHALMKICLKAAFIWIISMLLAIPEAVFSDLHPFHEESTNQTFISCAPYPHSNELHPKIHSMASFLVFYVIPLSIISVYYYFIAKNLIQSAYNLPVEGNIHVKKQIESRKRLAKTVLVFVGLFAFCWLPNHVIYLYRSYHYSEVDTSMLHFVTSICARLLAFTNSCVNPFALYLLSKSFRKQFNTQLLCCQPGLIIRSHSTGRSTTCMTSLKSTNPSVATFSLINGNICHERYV
The experiment in a line: 111In-labelled liposomes on PC-3 cells overexpressing the GRP receptor; cell-bound radioactivity by gamma counting. The procedure:
On the day of the experiment, the cell medium is removed, the cells are washed two times with fresh medium (DMEM with 1% of foetal bovine serum, pH 7.4) and incubated for at least one hour at 37° C. The cells were incubated (in triplicate) with 100 μL of liposomes labelled with indium 111/natural indium at various times (30 mins, 1 hour, 2 hours, 4 hours). The final volume is 1 mL and the final liposomal concentration is 2*10⁻⁴M. At the end of the incubation, the cell medium, containing the unbound radioactivity, is separated from the cells.
The radioactivity bound to the cells was recovered by tryptic digestion after two rapid washes with […] PBS followed by 1 hour of incubation and measured by gamma counting. The difference in binding of the liposomes containing H-L₁-Y(C)-L₂-P with the bombesin peptide, compared to when the peptide is absent, is clearly visible in FIG. 2. Experiments were conducted with various type (1) monomers in the liposomal formulation, varying the peptide sequences and the chelating agent, such as those described in examples 1a-1o. No substantial differences are found in the target selective binding properties. For example, in FIG. 2 the result for the liposomes containing monomer 1a is reported.
On to {Peg27-Y(DTPA)-AhOh}-QWAVGHLM-NH2 (reading uncertain; also: in liposomes, Tested in 111In-labelled liposomes), for which the binding result was “binds”.

Take B1: the binding result is “binds”.

As to B2, the binding result is “binds”.

Regarding B3, the binding result is “binds”.
